Columns and labels:
[1] = target: T1, human Insulin-like growth factor I receptor (IGF-1R) on tumor cells (human, UniProt P08069 31-1367); experiment: competitive FACS binding on A549 cells, competitor labeled <IGF-1R> HUMAB Clone 18, Exp. #1
T1 construct: Endogenously expressed on the human tumor cell lines; also called IGF-IR; CD 221 antigen

[2] = target: T1, human Insulin-like growth factor I …; experiment: competitive FACS binding on A549 cells, competitor labeled <IGF-1R> HUMAB Clone 18, Exp. #2
[3] = target: T1, human Insulin-like growth factor I …; experiment: competitive FACS binding on TC-71 cells, competitor labeled <IGF-1R> HUMAB Clone 18, Exp. #1
[4] = target: T1, human Insulin-like growth factor I …; experiment: competitive FACS binding on TC-71 cells, competitor labeled <IGF-1R> HUMAB Clone 18, Exp. #2

T1 sequence (P08069 31-1367 limits assumed): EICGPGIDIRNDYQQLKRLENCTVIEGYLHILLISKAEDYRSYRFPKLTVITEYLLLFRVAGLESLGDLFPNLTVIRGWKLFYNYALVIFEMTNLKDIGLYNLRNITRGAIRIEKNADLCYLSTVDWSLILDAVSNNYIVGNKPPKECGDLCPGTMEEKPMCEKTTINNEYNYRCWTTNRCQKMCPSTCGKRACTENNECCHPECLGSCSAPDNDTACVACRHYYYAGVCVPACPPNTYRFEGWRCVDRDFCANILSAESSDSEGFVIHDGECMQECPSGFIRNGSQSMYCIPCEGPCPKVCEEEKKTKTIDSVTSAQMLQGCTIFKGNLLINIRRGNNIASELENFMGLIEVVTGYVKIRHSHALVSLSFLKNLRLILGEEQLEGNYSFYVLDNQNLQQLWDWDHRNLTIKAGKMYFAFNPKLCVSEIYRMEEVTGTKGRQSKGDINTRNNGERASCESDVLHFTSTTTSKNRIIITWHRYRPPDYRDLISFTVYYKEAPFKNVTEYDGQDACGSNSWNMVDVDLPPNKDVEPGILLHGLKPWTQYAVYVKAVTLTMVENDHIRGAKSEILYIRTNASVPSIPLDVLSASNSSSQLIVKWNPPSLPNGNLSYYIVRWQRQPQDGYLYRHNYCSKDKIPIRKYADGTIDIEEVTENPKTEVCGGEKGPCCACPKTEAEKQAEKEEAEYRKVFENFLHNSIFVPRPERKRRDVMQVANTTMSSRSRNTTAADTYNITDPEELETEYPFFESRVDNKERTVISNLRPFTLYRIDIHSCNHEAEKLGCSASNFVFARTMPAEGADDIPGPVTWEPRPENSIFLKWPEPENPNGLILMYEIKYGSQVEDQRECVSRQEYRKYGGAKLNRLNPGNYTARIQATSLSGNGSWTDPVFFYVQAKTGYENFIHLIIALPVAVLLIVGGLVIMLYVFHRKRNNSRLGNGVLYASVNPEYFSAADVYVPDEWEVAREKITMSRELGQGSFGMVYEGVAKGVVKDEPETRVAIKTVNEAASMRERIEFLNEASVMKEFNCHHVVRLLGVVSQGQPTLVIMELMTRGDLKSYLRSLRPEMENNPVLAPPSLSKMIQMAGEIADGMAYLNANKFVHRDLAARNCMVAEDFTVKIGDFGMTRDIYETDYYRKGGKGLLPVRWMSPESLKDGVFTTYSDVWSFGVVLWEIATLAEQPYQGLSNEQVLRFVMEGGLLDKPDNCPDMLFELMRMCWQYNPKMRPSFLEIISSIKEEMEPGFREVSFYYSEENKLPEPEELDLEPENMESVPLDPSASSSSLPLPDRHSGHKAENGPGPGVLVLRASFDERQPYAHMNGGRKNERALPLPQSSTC

IC50 [1]: 1.6 nM | IC50 [2]: 1.5 nM | IC50 [3]: 1.4 nM | IC50 [4]: 1.5 nM
B1: human anti-IGF-1R antibody <IGF-1R> HUMAB Clone 18 (DSM ACC 2587) (antibody, V domains shown)
VH: QVELVESGGGVVQPGRSQRLSCAASGFTFSSYGMHWVRQAPGKGLEWVAIIWFDGSSTYYADSVRGRFTISRDNSKNTLYLQMNSLRAEDTAVYFCARELGRRYFDLWGRGTLVSVSS
VL: EIVLTQSPATLSLSPGERATLSCRASQSVSSYLAWYQQKPGQAPRLLIYDASKRATGIPARFSGSGSGTDFTLTISSLEPEDFAVYYCQQRSKWPPWTFGQGTKVESK

From patent US20110293613A1 (Hoffmann-La Roche, published 2011)
